According to patent publication US20260242478A1 (published 2026):

B1: Phage-3925 (Peptide-180 library clone) (peptide)
peptide: NERFCEPAWMCHGF
notes: Tested as clonal phage supernatant; not shown: fused to the pIII filament protein of the bacteriophage
B2: Phage-3926 (Peptide-180 library clone) (peptide)
peptide: VERFCEPAWMCIGL
notes: as for B1
B3: Phage-3927 (Peptide-180 library clone) (peptide)
peptide: SMQKCVPSWMCAGF
notes: as for B1
B4: Phage-3928 (Peptide-180 library clone) (peptide)
peptide: WDLLCSPPWMCAGM
notes: as for B1
B5: Phage-3929 (Peptide-180 library clone) (peptide)
peptide: TWSICEPRWMCEGF
notes: as for B1
B6: Phage-3930 (Peptide-180 library clone) (peptide)
peptide: QLLRCVPPWMCEGF
notes: as for B1
B7: Phage-3931 (Peptide-180 library clone) (peptide)
peptide: PTIMCIPVWMCQAF
notes: as for B1
B8: Phage-3932 (Peptide-180 library clone) (peptide)
peptide: LNVECVPQWMCDGF
notes: as for B1
B9: Phage-3933 (Peptide-180 library clone) (peptide)
peptide: YTQACTPSWMCHGF
notes: as for B1
B10: Phage-3934 (Peptide-180 library clone) (peptide)
peptide: DIVECRPRWMCDGF
notes: as for B1
B11: Phage-3935 (Peptide-180 library clone) (peptide)
peptide: PGFWCQPKWMCEGF
notes: as for B1
B12: Phage-3936 (Peptide-180 library clone) (peptide)
peptide: WVRLCQPAWMCTGL
notes: as for B1
B13: Phage-3937 (Peptide-180 library clone) (peptide)
peptide: LTPVCRPAWMCLEL
notes: as for B1

Columns and labels:
[1] = target: T1, PSMA Fab (006 PSMA Fab); experiment: clonal phage supernatant on biotinylated PSMA Fab captured on neutravidin plate, anti-M13-HRP detection;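 also: before phage were added, wells received PSMA antigen in blocking buffer or blocking buffer alone, with no wash in between, followed by a short phage incubation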
T1 construct: also called Anti-PSMA Fab
Protocol: (§1) Clonal phage were harvested as crude supernatants and screened via standard ELISAs. […] Prior to the addition of clonal phage. wells were incubated with blocking buffer and PSMA antigen or blocking buffer alone. Without washing or aspirating, clonal phage supernatants were then added to the wells and incubated for a short time. Wells were then washed followed by detection of bound phage using a horse radish conjugated anti-M13 antibody.

[2] = target: T1, PSMA Fab (006 PSMA Fab); experiment: phage ELISA on captured PSMA Fab pre-incubated with the competitor PSMA antigen, anti-M13-HRP detection
Protocol: as §1

[3] = target: T2, PSMA Fab (006 PSMA Fab); experiment: phage binding ELISA; biotinylated PSMA Fab on neutravidin plate, clonal phage supernatant, anti-M13 HRP detection;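 also: wells were preincubated with blocking buffer either containing PSMA antigen or without it before crude phage supernatant was added, briefly incubated, then washed prior to detection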
T2 construct: also called Anti-PSMA Fab; anti-PSMA Fab
Protocol: as §1

| Binder | Phage binding ELISA signal, Anti-PSMA Fab [1] | phage binding ELISA signal, Anti-PSMA Fab in the presence of PSMA [2] | Phage binding ELISA signal, Anti-PSMA Fab [3] |
| --- | --- | --- | --- |
| FGVKCEPRWMCNGF [Phage-3914] | 1.02 | 0.0693 | – |
| YQMLCVPEWMCSGL [Phage-3915] | 1.02 | 0.0874 | – |
| STTLCRPAWMCTGM [Phage-3916] | 1.02 | 0.0655 | – |
| DRVLCTPTWMCEGF [Phage-3917] | 1.01 | 0.0642 | – |
| AQKLCEPMWMCVGF [Phage-3918] | 1 | 0.064 | – |
| MSPMCSPSWMCMGF [Phage-3919] | 0.993 | 0.0911 | – |
| AQVLCVPNWMCTGF [Phage-3920] | 0.985 | 0.0618 | – |
| GQIMCIPTWMCSGF [Phage-3921] | 0.98 | 0.0809 | – |
| GAYTCVPAWMCQGF [Phage-3922] | 0.979 | 0.0665 | – |
| IEAQCRPVWMCHGF [Phage-3923] | 0.978 | 0.0779 | – |
| YNQYCTPLWMCEGF [Phage-3924] | 0.977 | 0.0796 | – |
| B1 | – | – | 0.977 |
| B2 | – | – | 0.972 |
| B3 | – | – | 0.972 |
| B4 | – | – | 0.971 |
| B5 | – | – | 0.97 |
| B6 | – | – | 0.97 |
| B7 | – | – | 0.966 |
| B8 | – | – | 0.965 |
| B9 | – | – | 0.96 |
| B10 | – | – | 0.936 |
| B11 | – | – | 0.93 |
| B12 | – | – | 0.926 |
| B13 | – | – | 0.922 |
